Biological target: Total cellular Ras (all isoforms KRas, HRas and NRas, endogenous, in human cell lines)
Assay: cell-based or functional assay

RRSP-DTB (RRSP fused via a (G4S)2 linker to diphtheria toxin residues 186-535, DTT-DTR) (from UniProt P00588 186-535) (enzyme)
IC50 of cell viability after 72 hours, HCT-116 cells: 1.5 pM
IC50 of cell viability at 72 h, MDA-MB-436 cells: 5 pM
IC50 of cell viability, MDA-MB-231 cells, 72 hours: 12 pM
IC50 of viability of HCT-116 spheroids after 7 days: 85 pM
concentration giving complete cleavage of RAS after 1 h, western blot, MDA-MB-436 cells: 10 nM

RRSP*-DTB (catalytically inactive RRSP H4030A fused to DTB) (from UniProt P00588 186-535) (enzyme)
dose needed for depletion of RAS in HCT-116 spheroids relative to RRSP-DTB: 10 fold

RRSP-CPD-DTa-DTB (RRSP fused to the MARTX cysteine protease domain and detoxified diphtheria toxin) (from UniProt P00588 33-567) (enzyme)
concentration giving partial RAS inactivation, western blot, HCT-116 cells: 100 pM

From patent US20230045284A1
